The target in data set [1] is T1, HNRNPH1 (hnRNP H1) isoform A (UniProt P31943 P31943:1-449).
T1 sequence: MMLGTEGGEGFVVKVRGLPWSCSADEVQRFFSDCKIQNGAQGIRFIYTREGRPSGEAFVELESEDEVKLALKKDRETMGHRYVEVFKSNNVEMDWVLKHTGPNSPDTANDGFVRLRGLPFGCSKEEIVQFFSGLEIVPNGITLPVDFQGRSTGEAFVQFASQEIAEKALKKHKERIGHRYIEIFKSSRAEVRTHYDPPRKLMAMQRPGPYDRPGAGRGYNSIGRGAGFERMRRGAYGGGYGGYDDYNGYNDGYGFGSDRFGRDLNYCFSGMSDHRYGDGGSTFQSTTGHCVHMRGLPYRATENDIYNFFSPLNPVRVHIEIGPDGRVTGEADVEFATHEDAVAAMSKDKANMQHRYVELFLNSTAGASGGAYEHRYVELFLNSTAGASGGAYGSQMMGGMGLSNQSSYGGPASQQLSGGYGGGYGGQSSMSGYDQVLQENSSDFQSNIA
The data set can be described thus: MST; value only in figure; 20 nM RNA, 50 mM Tris pH 8.0, 300 mM KCl, 0.02% NP-40, 10% glycerol, 0.5 mg/ml heparin, 22 C. To be noted: label: 3' FAM (MST). As to the method: (§1) Microscale thermophoresis. MicroScale Thermophoresis experiments were performed according to the NanoTemper technologies protocol in a Monolith NT.115Pico (red/blue) instrument (NanoTemper Technologies). Serial dilutions of HNRNPH1 were done using a buffer containing 50 mM Tris [pH 8.0], 300 mM KCl, 0.02% NP-40, 10% Glycerol, and 0.5 mg/ml Heparin. RNA oligos were labeled with a FAM moiety at their […] (IDT). The RNA concentration was kept constant at 20 nM throughout the experiments. The RNA-protein mixture was incubated at room temperature for 15 mins before running into the MST instrument. The experiments were performed using 40% and 60% MST power and between 20%-80% LED power at 22_C. The MST traces were recorded using the standard parameters: 5 s MST power off, 30 s medium MST power on and 5 s MST power off. The reported measurement values are the combination of two effects: the fast, local environment dependent responses of the fluorophore to the temperature jump and the slower diffusive thermophoresis fluorescence changes. The data presented here are the average of 3 independent experiments. Average normalized fluorescence (%) was plotted against HNRNPH1 concentration to determine the binding constant (Kd). Ligand depletion model with one binding site was used (Using GraphPad Prism 8) to fit the binding which follows the following model: Y=Bmax*X/(Kd+X).

Data set [2] deals with T1, HNRNPH1 (hnRNP H1) isoform A. Briefly: MST; value only in figure; same buffer as INCR1. As to conditions: label: 3' FAM (MST); 32P (EMSA). As to the method: as §1
A general note: A gel shift assay detects complexes by their altered migration in electrophoresis.

For the molecule GGGGCGGGCCGGUUGCCGGGGGGAGCUGGAGUCACGUGACGGC (ssRNA) [INCR1 RNA oligo], in data set [1], the binding result is on record as “binds”. Turning to UAAGGGGUGAGGGGCAGGAGAAUGGGUAUGGAUGGAGGUAGA (ssRNA) [PD-L1 RNA oligo], the binding result in data set [2] is given as “binds”. With AUACGUGGGAGUGGGGUGCUGAGCUGGGCAGGGUGAGAGUAU (ssRNA) [JAK2 RNA oligo], the binding result in data set [2] was “binds”.

The record behind these values is patent publication US20240167098, “METHODS FOR PREDICTING TREATMENT OUTCOME TO CHECKPOINT INHIBITORS IN CANCER” (The Brigham and Women`s Hospital, Inc., published 2024).
